Our source for the self-cleavage values is the RNAGym collection of RNA variant scans (doi:10.7554/elife.90254).

B1: OR4K15 (parent)
chain: GUUAACGGUCAUAGGCCAUGGAAACUAGGAGCACCAUUUCGCUGCCAGUGAAGAAAUGAACAAAGAAAAUCUGGGCCAGGCAGGCAUCAAAAGAAAUAGUCUUGCGCUCAACCAGAAAGUCUGUAAUCAUUUUAAGGGUA
B2: LINE1-full (parent)
chain: UACGUAGGUGGUUUUCCCCUGAUAGUGCUAAGGGGGCCUGGAAGUUUGGACUGGGCAGAGCUCAACACAGCGUGGCAAAGUGGCUGUGGCUAGACUGCCUCUCUGGAUUCCUCGUCACUCAGCAGGGCAUCUCUGAGAGAAAUGCC

One data set covers variants of B1. As to the kind of experiment: self-cleavage, relative activity (ratio to wild type); higher = more cleavage; in vitro, sequencing; the parent is a self-cleaving ribozyme.
Regarding A11G U108C, the self-cleavage is 0.01.
Turning to A5G G14C, the self-cleavage amounted to 1.57.
On to G74A A94G, for which the self-cleavage was 0.13.
Still for that read-out and setting: the value for A69C A96C was 1.03; that for A13G A91U was 0.92; that for A66G A98U was 1.08.
Still for that read-out and setting: in the case of G80A U108A it was 0.02.
Still for that read-out and setting: in the case of U9G U12C it was 0.29.
Turning to A60G A90C, the self-cleavage was determined as 0.79.
On the same count and under the same terms, in the case of A95G A114U it was 0.42.
Take U70C U139C: the self-cleavage amounted to 0.7.
The same measure, in the same setting: in the case of A30C A64U it was 0.92; in that of A90U U100C, 2.02; in that of A11U A129U, 0.64.
As for A56G U131C, the self-cleavage was 1.47.
Same read-out and setting: in the case of U2C U3C it was 0.98; in that of A117G A140U, 1.12; in that of U9C C85U, 1.44.
Still for that read-out and setting: the value for U70C A89G was 0.58; that for A33G was 0.82.
In the case of A36G U87A, the self-cleavage was determined as 2.26.
Still for that read-out and setting: in the case of G138C it was 1.73.
In the case of U38A A60G, the self-cleavage was 1.32.
Consider A95U A116G, for which the self-cleavage stood at 1.
For the variant C40G A90G, the self-cleavage is 1.44.
The same measure, in the same setting: the value for U12C A18U was 1.3.
Consider A47U A92G, for which the self-cleavage was 0.84.
Still for that read-out and setting: in the case of A27G U37C it was 1.27; in that of A68G A118C, 0.67.
On to C34U U72C, for which the self-cleavage came to 0.17.
The same measure, in the same setting: the value for A94U U127C was 1.21.
Same read-out and setting: in the case of U49G U108A it was 0.04; in that of A96C G104A, 0.02; in that of A36U U37C, 0.59.
As for A59U A67G, the self-cleavage was 1.25.
Still for that read-out and setting: in the case of A52U U97C it was 0.96; in that of G106A U127A, 0.01; in that of A67U A78C, 0.23.
Take A36U A125G: the self-cleavage amounted to 0.7.
Same read-out and setting: in the case of A82U U132C it was 0.18; in that of A22G A126C, 0.67; in that of A63G A126G, 1.13.
The same measure, in the same setting: in the case of A111G U122G it was 0.01.
As for U12C U122G, the self-cleavage amounted to 2.09.
Same read-out and setting: in the case of U72C A117U it was 0.15.
Regarding A66G A110G, the self-cleavage was determined as 0.15.
On the same count and under the same terms, the value for A60G C112U was 0.02; that for A24U U122C was 1.08.
As for A92G A129G, the self-cleavage amounted to 0.74.
The same measure, in the same setting: the value for A82G G83U was 0.08.
On the same count and under the same terms, in the case of A23U U37C it was 1.41; in that of C46A A116G, 0.57.
The same measure, in the same setting: the value for A92C A96G was 1.73; that for A18G C105U was 0.29; that for A96G U103C was 1.27.
In the case of U39A A90G, the self-cleavage turned out to be 0.95.
Regarding A47G A140U, the self-cleavage was 1.24.
Same read-out and setting: the value for C81A A135G was 0.22.
For the variant G21A, the self-cleavage is 0.62.
Regarding A51G A82U, the self-cleavage amounted to 0.25.

In another data set the parent is B2. Described as above.
On to A138U U143A, for which the self-cleavage was found to be 1.52.
The same measure, in the same setting: in the case of A142G G144A it was 1.44.
Consider U134C A138G, for which the self-cleavage worked out at 1.4.
On the same count and under the same terms, the value for A141G U143A was 1.29.
The same measure, in the same setting: in the case of U134C G135A it was 2.1.
On the same count and under the same terms, in the case of U134G A142G it was 1.16; in that of U134C C145U, 1.1.
In the case of G137U, the self-cleavage stood at 1.31.
The same measure, in the same setting: the value for G137A was 1.19; that for G137C was 1.3; that for A140G C146U was 1.63.
Same read-out and setting: the value for U134G A140G was 1.03; that for A138G A140C was 1.8.
The same measure, in the same setting: in the case of A138G A140U it was 1.29; in that of A138G A140G, 1.52; in that of U134C C146U, 1.65.
Turning to A136G G144A, the self-cleavage worked out at 0.88.
On the same count and under the same terms, the value for A141C A142G was 1.26; that for A142C U143A was 1.41.
On the same count and under the same terms, the value for G139A A142G was 1.15; that for A136G A141G was 1.03.
Still for that read-out and setting: the value for G135A C145U was 1.46.
In the case of U134C A140G, the self-cleavage turned out to be 1.58.
On the same count and under the same terms, in the case of U134G A136U it was 1.72.
Still for that read-out and setting: the value for U143C C146U was 1.51.
Still for that read-out and setting: the value for A136G U143A was 1.34.
A138U A142G: the self-cleavage was determined as 0.93.
Same read-out and setting: the value for G139U C145G was 2.02; that for A138C U143A was 1.94; that for A136U A138G was 1.55.
The same measure, in the same setting: in the case of A140G U143C it was 0.26; in that of A138U A140U, 0.84; in that of U134A A140U, 0.85.
Same read-out and setting: the value for U134A A141G was 1.12; that for A138G U143G was 1.34.
On to A138G U143C, for which the self-cleavage was found to be 1.54.
On the same count and under the same terms, in the case of A140G G144U it was 1.05; in that of G139A A140G, 0.19.
With A140U G144A, the self-cleavage worked out at 1.39.
As for A142U U143A, the self-cleavage amounted to 1.13.
Still for that read-out and setting: the value for A136U A142C was 1.43; that for C146A was 1.45; that for C146U was 1.29.
On the same count and under the same terms, the value for A136G C145U was 1.45.
The same measure, in the same setting: the value for G135U A140G was 1.08.
As for G137C A138G, the self-cleavage turned out to be 1.26.
Still for that read-out and setting: the value for A140U A141G was 1.41.
Still for that read-out and setting: the value for A141G C145U was 1; that for A141U U143C was 0.28; that for G135A A138U was 1.01.
Still for that read-out and setting: in the case of A138U A141G it was 1.17; in that of G137A A140G, 1.4.
Consider A141C U143C, for which the self-cleavage stood at 1.67.
The same measure, in the same setting: in the case of A140G A141U it was 0.82; in that of U143C C145U, 1.06.
On the same count and under the same terms, the value for A140C U143C was 1.81; that for A136U C146U was 1.58; that for A136G A138U was 1.98.
The same measure, in the same setting: the value for A136G A138G was 1.6; that for U134C G139A was 1.29; that for A136U A141G was 1.3.
Take A136C C145A: the self-cleavage turned out to be 1.72.
On the same count and under the same terms, in the case of A142G C146U it was 1.49; in that of U134G A141G, 1.44.
Still for that read-out and setting: the value for U134A A142C was 1.23; that for A141G A142C was 0.39; that for A138G C146A was 1.17.
The same measure, in the same setting: in the case of U134C A141G it was 1.41; in that of U143C, 1.18.
As for U143G, the self-cleavage came out at 1.11.
As for U143A, the self-cleavage amounted to 1.12.
Still for that read-out and setting: the value for A142G U143A was 1.28.
A142G U143C: the self-cleavage amounted to 1.31.
Still for that read-out and setting: in the case of G144A it was 1.23; in that of G144C, 1.34.
For the variant G144U, the self-cleavage was 1.58.
The same measure, in the same setting: the value for A136C A140G was 1.53.
Still for that read-out and setting: the value for A136G A142G was 1.47; that for A136G C146U was 1.91.
Regarding A138G G144C, the self-cleavage came to 1.6.
On the same count and under the same terms, in the case of A138G G144A it was 0.14; in that of A138U, 1.1; in that of A138C, 0.76.
Still for that read-out and setting: in the case of A138G it was 1.21.
On the same count and under the same terms, in the case of A140U U143C it was 1.54.
Turning to A140U U143A, the self-cleavage turned out to be 1.41.
Still for that read-out and setting: the value for A138G A142C was 0.16; that for C145U C146A was 1.59.
For A136U A140G, the self-cleavage turned out to be 1.7.
As to A136U A140U, the self-cleavage came to 1.65.
On the same count and under the same terms, the value for U134G was 1.46.
On the same count and under the same terms, in the case of U134C it was 1.18; in that of A136G G137A, 2.12.
Turning to A136U U143A, the self-cleavage stood at 1.41.
On to A140G A142U, for which the self-cleavage is 0.84.
With G144C C145U, the self-cleavage is 0.99.
Same read-out and setting: in the case of U134G G137U it was 0.94.
For the variant U134A C145U, the self-cleavage turned out to be 0.83.
Same read-out and setting: the value for A141G G144A was 1.28; that for A138G C145A was 2.76.
Same read-out and setting: the value for G135A was 1.27; that for G135U was 1.22; that for G135C was 1.55.
With A141G, the self-cleavage was 1.1.
For the variant A141C, the self-cleavage is 1.04.
On the same count and under the same terms, in the case of A141U it was 1.04.
The same measure, in the same setting: in the case of A138C A140G it was 0.07.
